{"source": "the supplement of paper PMC9112550", "about": "“Optimization of the antimicrobial peptide Bac7 by deep mutational scanning” (BMC Biology, 2022);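 note: peptides expressed intracellularly from a pBAD plasmid library in pooled LB shake-flask culture, induced with 0.3% L-arabinose, DNA abundance read by NGS, three biological replicates, DESeq2 with apeglm shrinkage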"}
{"system": "Escherichia coli TOP10", "test": "shrunken log2 fold change of peptide-encoding DNA abundance (4.5 h post-induction vs induction); higher = less antimicrobial activity (less host growth inhibition)", "conditions": "time post-induction: 4.5 h; library: site-saturation at positions 5, 18, 19, 20"}
{"sequence": "RRIRSRPPRLPRPRPRPIHDPRP", "shrunken log2 fold change": -0.128}
{"sequence": "RRIRFRPPRLPRPRPRPTDQPRP", "shrunken log2 fold change": -0.0655}
{"sequence": "RRIRVRPPRLPRPRPRPFKRPRP", "shrunken log2 fold change": -0.165}
{"sequence": "RRIRERPPRLPRPRPRPKDTPRP", "shrunken log2 fold change": -0.115}
{"sequence": "RRIRCRPPRLPRPRPRPSDNPRP", "shrunken log2 fold change": -0.66}
{"sequence": "RRIRPRPPRLPRPRPRPNRSPRP", "shrunken log2 fold change": 0.16}
{"sequence": "RRIRARPPRLPRPRPRPNIVPRP", "shrunken log2 fold change": 0.0466}
{"sequence": "RRIRHRPPRLPRPRPRPCKAPRP", "shrunken log2 fold change": -0.0317}
{"sequence": "RRIRSRPPRLPRPRPRPAFVPRP", "shrunken log2 fold change": 0.577}
{"sequence": "RRIRGRPPRLPRPRPRPPILPRP", "shrunken log2 fold change": -0.0529}
{"sequence": "RRIRFRPPRLPRPRPRPSCKPRP", "shrunken log2 fold change": -0.901}
{"sequence": "RRIRKRPPRLPRPRPRPGQDPRP", "shrunken log2 fold change": 0.37}
{"sequence": "RRIRARPPRLPRPRPRPTEDPRP", "shrunken log2 fold change": 0.269}
{"sequence": "RRIRERPPRLPRPRPRPDYGPRP", "shrunken log2 fold change": -0.015}
{"sequence": "RRIRPRPPRLPRPRPRPYNFPRP", "shrunken log2 fold change": -0.289}
{"sequence": "RRIRQRPPRLPRPRPRPHVCPRP", "shrunken log2 fold change": -0.0223}
{"sequence": "RRIRDRPPRLPRPRPRPYFFPRP", "shrunken log2 fold change": -0.287}
{"sequence": "RRIRWRPPRLPRPRPRPDIFPRP", "shrunken log2 fold change": -0.029}
{"sequence": "RRIRHRPPRLPRPRPRPMCPPRP", "shrunken log2 fold change": -0.0218}
{"sequence": "RRIRVRPPRLPRPRPRPSIWPRP", "shrunken log2 fold change": -0.205}
{"sequence": "RRIRQRPPRLPRPRPRPTCRPRP", "shrunken log2 fold change": 0.133}
{"sequence": "RRIRERPPRLPRPRPRPRNCPRP", "shrunken log2 fold change": -0.102}
{"sequence": "RRIRKRPPRLPRPRPRPAAYPRP", "shrunken log2 fold change": 0.361}
{"sequence": "RRIRKRPPRLPRPRPRPKANPRP", "shrunken log2 fold change": 0.768}
{"sequence": "RRIRKRPPRLPRPRPRPPLNPRP", "shrunken log2 fold change": 0.309}
{"sequence": "RRIRSRPPRLPRPRPRPVDFPRP", "shrunken log2 fold change": -0.0272}
{"sequence": "RRIRGRPPRLPRPRPRPSAEPRP", "shrunken log2 fold change": 2.33}
{"sequence": "RRIRRRPPRLPRPRPRPFNWPRP", "shrunken log2 fold change": 0.0111}
{"sequence": "RRIRDRPPRLPRPRPRPTDWPRP", "shrunken log2 fold change": 0.516}
{"sequence": "RRIRYRPPRLPRPRPRPWVCPRP", "shrunken log2 fold change": -0.0275}
{"sequence": "RRIRVRPPRLPRPRPRPWSKPRP", "shrunken log2 fold change": -0.2}
{"sequence": "RRIRSRPPRLPRPRPRPEANPRP", "shrunken log2 fold change": 0.542}
{"sequence": "RRIRYRPPRLPRPRPRPIKNPRP", "shrunken log2 fold change": -0.275}
{"sequence": "RRIRYRPPRLPRPRPRPPKCPRP", "shrunken log2 fold change": -0.813}
{"sequence": "RRIRIRPPRLPRPRPRPYSHPRP", "shrunken log2 fold change": -0.941}
{"sequence": "RRIRGRPPRLPRPRPRPYGDPRP", "shrunken log2 fold change": -0.176}
{"sequence": "RRIRFRPPRLPRPRPRPNNYPRP", "shrunken log2 fold change": -0.539}
{"sequence": "RRIRGRPPRLPRPRPRPTNCPRP", "shrunken log2 fold change": 0.31}
{"sequence": "RRIRIRPPRLPRPRPRPDEMPRP", "shrunken log2 fold change": -0.15}
{"sequence": "RRIRARPPRLPRPRPRPTIHPRP", "shrunken log2 fold change": -0.0543}
{"sequence": "RRIRYRPPRLPRPRPRPSKPPRP", "shrunken log2 fold change": -0.833}
{"sequence": "RRIRKRPPRLPRPRPRPTYSPRP", "shrunken log2 fold change": -0.191}
{"sequence": "RRIRDRPPRLPRPRPRPGLAPRP", "shrunken log2 fold change": 0.565}
{"sequence": "RRIRSRPPRLPRPRPRPGDMPRP", "shrunken log2 fold change": 0.0129}
{"sequence": "RRIRARPPRLPRPRPRPSNGPRP", "shrunken log2 fold change": -0.318}
{"sequence": "RRIRLRPPRLPRPRPRPIPIPRP", "shrunken log2 fold change": -0.456}
{"sequence": "RRIRCRPPRLPRPRPRPIPIPRP", "shrunken log2 fold change": -0.0907}
{"sequence": "RRIRTRPPRLPRPRPRPDSVPRP", "shrunken log2 fold change": -0.0144}
{"sequence": "RRIRRRPPRLPRPRPRPTNGPRP", "shrunken log2 fold change": -0.168}
{"sequence": "RRIRGRPPRLPRPRPRPELHPRP", "shrunken log2 fold change": 1.04}
{"sequence": "RRIRDRPPRLPRPRPRPNMRPRP", "shrunken log2 fold change": -0.00803}
{"sequence": "RRIRCRPPRLPRPRPRPQIIPRP", "shrunken log2 fold change": -0.853}
{"sequence": "RRIRPRPPRLPRPRPRPIWFPRP", "shrunken log2 fold change": -0.0151}
{"sequence": "RRIRNRPPRLPRPRPRPLEDPRP", "shrunken log2 fold change": 0.0414}
{"sequence": "RRIRWRPPRLPRPRPRPFGEPRP", "shrunken log2 fold change": 0.439}
{"sequence": "RRIRDRPPRLPRPRPRPHFDPRP", "shrunken log2 fold change": 0.141}
{"sequence": "RRIRGRPPRLPRPRPRPRRCPRP", "shrunken log2 fold change": 0.548}
{"sequence": "RRIRQRPPRLPRPRPRPDKFPRP", "shrunken log2 fold change": -0.513}
{"sequence": "RRIRNRPPRLPRPRPRPTDHPRP", "shrunken log2 fold change": -0.383}
{"sequence": "RRIRFRPPRLPRPRPRPVLHPRP", "shrunken log2 fold change": -0.376}
{"sequence": "RRIRARPPRLPRPRPRPSPWPRP", "shrunken log2 fold change": 0.348}
{"sequence": "RRIRMRPPRLPRPRPRPFRYPRP", "shrunken log2 fold change": 0.0191}
{"sequence": "RRIRMRPPRLPRPRPRPNFTPRP", "shrunken log2 fold change": -0.099}
{"sequence": "RRIRPRPPRLPRPRPRPIHTPRP", "shrunken log2 fold change": -0.177}
{"sequence": "RRIRCRPPRLPRPRPRPNVHPRP", "shrunken log2 fold change": -0.532}
{"sequence": "RRIRKRPPRLPRPRPRPRSDPRP", "shrunken log2 fold change": 0.197}
{"sequence": "RRIRVRPPRLPRPRPRPFFQPRP", "shrunken log2 fold change": -0.0276}
{"sequence": "RRIRDRPPRLPRPRPRPYHQPRP", "shrunken log2 fold change": -0.0205}
{"sequence": "RRIRWRPPRLPRPRPRPNINPRP", "shrunken log2 fold change": -0.429}
{"sequence": "RRIRQRPPRLPRPRPRPDVMPRP", "shrunken log2 fold change": 0.0589}
{"sequence": "RRIRVRPPRLPRPRPRPHDQPRP", "shrunken log2 fold change": 0.134}
{"sequence": "RRIRKRPPRLPRPRPRPTDGPRP", "shrunken log2 fold change": 0.396}
{"sequence": "RRIRDRPPRLPRPRPRPWARPRP", "shrunken log2 fold change": -0.0626}
{"sequence": "RRIRARPPRLPRPRPRPYDMPRP", "shrunken log2 fold change": -0.0195}
{"sequence": "RRIRIRPPRLPRPRPRPRAEPRP", "shrunken log2 fold change": -0.202}
{"sequence": "RRIRFRPPRLPRPRPRPIPKPRP", "shrunken log2 fold change": 0.179}
{"sequence": "RRIRRRPPRLPRPRPRPIWRPRP", "shrunken log2 fold change": 0.181}
{"sequence": "RRIRWRPPRLPRPRPRPCMKPRP", "shrunken log2 fold change": 0.00396}
{"sequence": "RRIRDRPPRLPRPRPRPMKTPRP", "shrunken log2 fold change": -0.00973}
{"sequence": "RRIRGRPPRLPRPRPRPHKPPRP", "shrunken log2 fold change": 0.388}
{"sequence": "RRIRRRPPRLPRPRPRPKNPPRP", "shrunken log2 fold change": 0.124}
{"sequence": "RRIRKRPPRLPRPRPRPKAKPRP", "shrunken log2 fold change": 0.0663}
{"sequence": "RRIRNRPPRLPRPRPRPVVMPRP", "shrunken log2 fold change": 0.00659}
{"sequence": "RRIRRRPPRLPRPRPRPHDMPRP", "shrunken log2 fold change": -0.103}
{"sequence": "RRIRFRPPRLPRPRPRPHLKPRP", "shrunken log2 fold change": -0.437}
{"sequence": "RRIRMRPPRLPRPRPRPRRIPRP", "shrunken log2 fold change": 0.767}
{"sequence": "RRIRSRPPRLPRPRPRPSMYPRP", "shrunken log2 fold change": -0.286}
{"sequence": "RRIRYRPPRLPRPRPRPFMCPRP", "shrunken log2 fold change": -0.233}
{"sequence": "RRIRLRPPRLPRPRPRPGMLPRP", "shrunken log2 fold change": 0.0285}
{"sequence": "RRIRTRPPRLPRPRPRPKDTPRP", "shrunken log2 fold change": -0.076}
{"sequence": "RRIRWRPPRLPRPRPRPHVSPRP", "shrunken log2 fold change": -0.0109}
{"sequence": "RRIRWRPPRLPRPRPRPTKQPRP", "shrunken log2 fold change": 0.0132}
{"sequence": "RRIRTRPPRLPRPRPRPCEFPRP", "shrunken log2 fold change": -0.258}
{"sequence": "RRIRFRPPRLPRPRPRPAAWPRP", "shrunken log2 fold change": 0.28}
{"sequence": "RRIRQRPPRLPRPRPRPVENPRP", "shrunken log2 fold change": -0.0501}
{"sequence": "RRIRSRPPRLPRPRPRPLQDPRP", "shrunken log2 fold change": -0.129}
{"sequence": "RRIRFRPPRLPRPRPRPHNTPRP", "shrunken log2 fold change": -0.796}
{"sequence": "RRIRPRPPRLPRPRPRPYDLPRP", "shrunken log2 fold change": -0.293}
{"sequence": "RRIRVRPPRLPRPRPRPHNYPRP", "shrunken log2 fold change": -0.181}
{"sequence": "RRIRMRPPRLPRPRPRPCSLPRP", "shrunken log2 fold change": -0.0103}
{"sequence": "RRIRTRPPRLPRPRPRPYFQPRP", "shrunken log2 fold change": -0.587}
{"sequence": "RRIRCRPPRLPRPRPRPWIKPRP", "shrunken log2 fold change": -1.1}
{"sequence": "RRIRLRPPRLPRPRPRPTESPRP", "shrunken log2 fold change": 0.0515}
{"sequence": "RRIRDRPPRLPRPRPRPNRSPRP", "shrunken log2 fold change": 0.0428}
{"sequence": "RRIRYRPPRLPRPRPRPYGNPRP", "shrunken log2 fold change": -0.00695}
{"sequence": "RRIRYRPPRLPRPRPRPVGVPRP", "shrunken log2 fold change": -0.0394}
{"sequence": "RRIRMRPPRLPRPRPRPVVRPRP", "shrunken log2 fold change": 0.0837}
{"sequence": "RRIRHRPPRLPRPRPRPNTDPRP", "shrunken log2 fold change": -0.438}
